The values that follow come from patent US20240252641A1 (TCR2 THERAPEUTICS, published 2024).

For orientation: Kd means the constant that tells how readily two partners part at equilibrium.

To fix the notation:
T1: CD70 on cells (CHO-CD70, JVM-3, U266, Raji, THP-1, T cells) (human, UniProt P32970 1-193)
T1 construct: whole, on cells; also called cell-surface CD70
T1 sequence (looked up): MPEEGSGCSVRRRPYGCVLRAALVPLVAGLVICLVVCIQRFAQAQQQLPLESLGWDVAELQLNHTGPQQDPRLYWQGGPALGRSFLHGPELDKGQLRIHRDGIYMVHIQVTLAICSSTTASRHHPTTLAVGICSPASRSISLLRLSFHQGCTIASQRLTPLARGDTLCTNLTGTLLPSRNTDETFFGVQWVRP

T2: human CD70, recombinant, N-terminally biotinylated (residues 39-193) (human, UniProt P32970 39-193, N-terminal biotin)
T2 construct: range 39-193; the same entry is used there; also called biotinylated human CD70; CD70 biotin
T2 sequence (looked up): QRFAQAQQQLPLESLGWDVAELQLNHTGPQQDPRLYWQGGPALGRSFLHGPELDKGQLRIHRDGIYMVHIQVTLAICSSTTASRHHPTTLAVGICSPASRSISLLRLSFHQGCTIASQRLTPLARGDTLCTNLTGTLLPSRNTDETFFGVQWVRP

B1: 61-TC7-IV-H08 (scFv)
scFv: QMQLVQSGGGLVQPGRSLRLSCAASGFTFDDYAMHWVRQAPGKGLEWVAVISYDGSNKYYADSVKGRFTISRDNSKNTLYLQMNSLRAEDTAVYYCARSSYDFWSGYPKDMDVWGKGTTVTVSSGGSGGSGGSGGSSSELTQDPAVSVALGQTVRITCQGDSLRSYYASWYQQKPGQAPVLVIYGKNNRPSGIPDRFSGSSSGNTASLTITGAQAEDEADYYCNSRDSSGNHLVVFGGGTKLTVL
notes: His-tagged
B2: 56-TC7-VI-H08 (scFv)
scFv: QMQLVQSGAEVKKPGASVKVSCKASGYTFTSYYMHWVRQAPGQGLEWMGIINPSGGSTSYAQKFQGRVTMTRDTSTSTAYMELRSLRSDDTAVYYCARGWETNDAFDIWGQGTMVTVSSGGSGGSGGSGGSQSVLTQPPSVSGAPGQKVTISCSGSNSNVGNHYLSWYQHLPGTAPRLLIFDNNKRPSGIPDRFSGSKSGASATLDITGLQTGDEADYFCGTWDSRLNVWVFGGGTKLTVL
notes: His-tagged
B3: 47-TC7-III-D10 (scFv)
scFv: QVQLVQSGAEVKKPGASVKVSCKASGYTFTSYGISWVRQAPGQGLEWMGWISAYNGNTNYAQKLQGRVTMTTDTSTSTAYMELRSLRSDDTAVYYCARDSSSWYYYYGMDVWGQGTTVTVSSGGSGGSGGSGGSSYELTQPPSVSVSPGQTARISCSGDALPNQYAYWYQQKPGQAPVLVIYQDSERPSGIPERFSGSSSGTTVTLTISGVQAEDEADYYCQSADTYGTSWVFGGGTKLTVL
notes: His-tagged
B4: 40-TC7-VI-F11 (scFv)
scFv: EVQLVESGGGVVQPGRSLRLSCAASGFTFSSYAMHWVRQAPGKGLEWVAVISYDGSNKYYADSVKGRFTISRDNSKNTLYLQMNSLRAEDTAVYYCARDGYGFDYWGQGTLVTVSSGGSGGSGGSGGSSYELTQSPSVSVAPGQTARITCGGNNIGSKSVHWYQQKPGQAPVLVVYDDSDRPSGIPERFSGSNSGNTATLTISRVEAGDEADYYCQVWDSSTPYVFGTGTKLTVL
notes: His-tagged
B5: 15-TC7-I-D07 (scFv)
scFv: QVQLQQWGAGLLKPSETLSLTCAVYGGSFSGYYWSWIRQPPGKGLEWIGEINHSGSTNYNPSLKSRVTISVDTSKNQFSLKLSSVTAADTAVYYCARVSRSRGAFDIWGQGTMVTVSSGGSGGSGGSGGSQSALTQPASVSGSPGQSITISCTGTNSDVGAYNYVSWYQQHPGKAPKLMIYEVTNRPSGVSNRFSGSKSGNTASLTISGLQAEDEADYYCSSYTSSGTWVFGGGTKLTVL
notes: His-tagged
B6: 62-TC7-V-D08 (scFv)
scFv: QVQLQQWGAGLLKPSETLSLTCAVYGGSFSGYYWSWIRQPPGKGLEWIGEINHSGSTNYNPSLKSRVTISVDTSKNQFSLKLSSVTAADTAVYYCARVARGKGAFDIWGQGTMVTVSSGGSGGSGGSGGSQSALTQPASVSGSPGQSITISCTGTSSDVGGYNYVSWYQQHPGKAPKLLIYEVSSRPSGVSNRFSGSKSGNTASLTISGLQAEDEADYYCNSYTNSGSWVFGGGTKVTVL
notes: His-tagged
B7: 57-TC7-VII-A03 (scFv)
scFv: QVQLQQSGPGLVKASETLSLTCAVSGHSISSSNYWGWIRQPPGKGLEWIGSIYHSGTTYYNPSLKSRVTMSVDTSKNQFSLKLSSVTAADTAVYYCARHGSGDLGYLEYWGQGTLVTVSSGGSGGSGGSGGSSYELTQSPSVSVAPGKTARITCGGNNIGSKSVHWYQQKPGQAPVLVIYYDSDRPSGIPERFSGSNSGNTATLTISRVEAGDEADYYCQVWDSSSDHPVFGGGTKVTVL
notes: His-tagged
B8: 46-TC7-VII-E11 (scFv)
scFv: QVQLVQSGGGVVQPGRSLRLSCAASGFTFSSYAMHWVRQAPGKGLEWVAVISYDGSNKYYADSVKGRFTISRDNSKNTLYLQMNSLRAEDTAVYYCARDSSGYYYGSDAFDIWGQGTMVTVSSGGSGGSGGSGGSSYELTQPPSVSVALGQTVRITCQGDSLRSYYASWYQQKPGQAPVLVIYGKNNRPSGIPDRFSGSSSGNTASLTITGAQAEDEADYYCNSRDSSGNPWVFGGGTKVTVL
notes: His-tagged
B9: 38-TC7-V-G06 (scFv)
scFv: QMQLVQSGAEVKKPGSSVKVSCKASGGTFSSYAISWVRQAPGQGLEWMGWISAYNGNTNYAQKLQGRVTMTTDTSTSTAYMELRSLRSDDTAVYYCARDDYWGQGTLVTVSSGGSGGSGGSGGSSYELTQPPSVSVAPGKTARITCSGDVLGENYADWYQQKPGQAPELVIYEDSERYPGIPERFSGSTSGNTTTLTISRVLTEDEADYYCLSGDEDNRVFGGGTKLTVL
notes: His-tagged
B10: 54-TC7-V-D10 (scFv)
scFv: QVQLQQWGAGLLKPSETLSLTCAVYGGSFSGYYWSWIRQPPGKGLEWIGEINHSGSTNYNPSLKSRVTISVDTSKNQFSLKLSSVTAADTAVYYCARGGYRSYWYFDLWGRGTLVTVSSGGSGGSGGSGGSQSALTQPASVSGSPGQSITISCTGTSSDVGGYNSVSWYQHHPGKAPKLMIYDVSDRPSGVSDRFSGSKSGNTASLTISGLQAEDEADYYCSSYAGSNNVVFGGGTKVTVL
notes: His-tagged

The target of the first experiment is T1, CD70 on cells (CHO-CD70, JVM-3, U266, …). The experiment can be described thus: 1.25 µg/mL scFv on JVM-3 cells. The procedure, abridged:
(§1)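 Panning of a naïve human library against the CD70 extracellular domain (aa39-193) yielded human scFv antibodies. Binding to high-CD70 (CHO-CD70, JVM3, U266) and low-CD70 (CHO WT, K562) tumour cell lines was recorded line by line.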
In turn, B1 showed a cell binding of 1070.

In turn, B2 came in with a cell binding of 2360.

As for B3, the cell binding worked out at 34700.

In the case of B4, the cell binding is 4870.

B5 returned a cell binding of 50900.

In the case of B6, the cell binding stood at 45200.

Molecule B7 came in with a cell binding of 1640.

B8 came in with a cell binding of 1790.

Molecule B9 had a cell binding of 27400.

In turn, B10 had a cell binding of 2130.

Another experiment has as its target T2, human CD70, recombinant, N-terminally …. The experiment can be described thus: SPR. The procedure, abridged: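 The scFv antibodies are human and were isolated by panning a naïve human library on the extracellular domain of CD70 (aa39-193). Their affinity (Kd) was measured by surface plasmon resonance analysis. The binding partner was recombinant human antigen biotinylated at the N-terminus.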
Regarding B1, the Kd stood at 332 nM.

For the molecule B2, the Kd was found to be 535 nM.

Regarding B3, the Kd amounted to 18.6 nM.

As for B4, the Kd was 279 nM.

In the case of B5, the Kd turned out to be 1750 nM.

Consider B6, for which the Kd was 194 nM.

As for B7, the Kd stood at 853 nM.

With B8, the equilibrium dissociation constant (Kd) is 180 nM.

B9: the Kd is 182 nM.

For B10, the Kd was 209 nM.

Another experiment shares this target. Description: CD27 blocking ELISA, 3 µM scFv, anti-His/HRP. Also: unit not given here. The method, then: Human scFv antibodies binding CD70 were generated by panning a naïve human library with the extracellular domain (aa39-193) of CD70. 53 antibodies were identified. The ability of CD27 to block CD70 binding of the identified antibodies was measured by ELISA using two different assays. In the first assay, CD27 and his-tagged scFv anti-CD70 binders were simultaneously added to surface bound CD70, and the ability of the scFv binders to bind CD70 was detected with anti-His HRP. In the second assay, plate-bound CD70 was pre-incubated with CD27 for 30 minutes, and then additional CD27 and the his-tagged scFv anti-CD70 binder was added. The ability of the scFv binders to bind CD70 was detected with anti-His HRP. FIG. 34 is a schematic of the two different CD27 blocking assays. CD70 affinity was also measured by SPR analysis. scFv antibodies were also tested for their ability to bind tumor cell lines with high (CHO-CD70, JVM3, and U266) and low levels (CHO WT and K562 of CD70 expression. Results for 39 antibodies are shown in Table 1 below.
For orientation: In an ELISA, binding on a coated surface is turned into a signal by an enzyme label.
Regarding B1, the “anti His/HRP” value is 0.711.

As to B2, the “anti His/HRP” value amounted to 1.5.

As to B3, the “anti His/HRP” value was 1.5.

With B4, the “anti His/HRP” value stood at 1.84.

In the case of B5, the “anti His/HRP” value was determined as 2.5.

Consider B6, for which the “anti His/HRP” value turned out to be 2.

With B7, the “anti His/HRP” value was 1.89.

B8: the “anti His/HRP” value stood at 2.28.

Regarding B9, the “anti His/HRP” value is 1.02.

Take B10: the “anti His/HRP” value was found to be 1.46.

Another experiment has the same target. The experiment can be described thus: CD27 blocking ELISA, 3 µM scFv, strep/HRP.
For the molecule B1, the strep/HRP was 1.52.

Take B2: the strep/HRP was determined as 1.44.

As for B3, the strep/HRP was found to be 1.55.

Regarding B4, the strep/HRP was determined as 1.37.

In the case of B5, the strep/HRP is 1.45.

In the case of B6, the strep/HRP was determined as 1.54.

Consider B7, for which the strep/HRP was 1.49.

Turning to B8, the strep/HRP worked out at 1.26.

As for B9, the strep/HRP is 1.53.

Turning to B10, the strep/HRP is 1.17.

For a further experiment, the target named is T1, CD70 on cells (CHO-CD70, JVM-3, U266, …). The experiment can be described thus: 1.25 µg/mL scFv on CHO-CD70 cells. The essentials: as §1
Consider B1, for which the cell binding was determined as 64900.

In turn, B2 displayed a cell binding of 296000.

In the case of B3, the cell binding is 313000.

B4 yielded a cell binding of 235000.

The molecule B5 gave a cell binding of 271000.

The molecule B6 registered a cell binding of 286000.

B7 returned a cell binding of 163000.

The molecule B8 showed a cell binding of 76200.

Turning to B9, the cell binding is 1.34e+06.

B10 registered a cell binding of 240000.

The next experiment has the same target. The experiment can be described thus: 1.25 µg/mL scFv on U266 cells. The essentials:
as §1
With B1, the cell binding came out at 947.

In the case of B2, the cell binding was determined as 6310.

B3 had a cell binding of 19000.

The molecule B4 showed a cell binding of 11800.

For the molecule B5, the cell binding stood at 42900.

B6 returned a cell binding of 35300.

The molecule B7 displayed a cell binding of 3150.

B8 came in with a cell binding of 2290.

In turn, B9 displayed a cell binding of 16900.

B10: the cell binding stood at 1140.
